The target of the experiment is H3HK68 full length hemagglutinin WT trimer (A/Hong Kong/1/1968(H3N2)) (Influenza A virus A/Hong …, UniProt Q91MA7). In words: BLI.
Chain of H3HK68 full length hemagglutinin WT trimer (A/Hong Kong/1/1968(H3N2)) (Q91MA7 17-566, one chain of several): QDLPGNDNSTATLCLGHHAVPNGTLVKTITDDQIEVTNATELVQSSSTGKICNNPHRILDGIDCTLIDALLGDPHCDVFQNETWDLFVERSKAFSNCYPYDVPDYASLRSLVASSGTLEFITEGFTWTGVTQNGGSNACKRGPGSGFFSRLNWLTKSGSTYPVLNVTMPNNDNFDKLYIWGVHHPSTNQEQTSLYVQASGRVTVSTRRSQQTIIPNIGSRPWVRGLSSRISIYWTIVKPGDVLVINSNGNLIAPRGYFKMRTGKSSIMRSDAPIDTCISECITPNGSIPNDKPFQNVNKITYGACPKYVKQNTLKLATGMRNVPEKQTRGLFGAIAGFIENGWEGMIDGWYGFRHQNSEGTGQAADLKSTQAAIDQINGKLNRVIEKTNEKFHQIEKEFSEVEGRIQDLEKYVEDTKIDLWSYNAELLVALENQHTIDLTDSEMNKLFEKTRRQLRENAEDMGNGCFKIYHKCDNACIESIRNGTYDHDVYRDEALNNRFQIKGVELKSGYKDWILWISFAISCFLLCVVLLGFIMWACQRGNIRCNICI

B1: F045-92 IgG (H3 RBS-specific antibody) (antibody, V domains shown)
VH: EVQLVESGAEVKKPGSSVKVSCRASGTFYKYAINWVRQAPGQGLEWMGGIIPFFGTTNYAQKFQGRLTITADGSTNTAYMQLDSLRSEDTAVYYCAGPSITESHYCLDCAAKDYYYGLDVWGQGTTVTVSS
VL: not shown
In turn, B1 came in with a Kd of 10 nM.

The record behind these values is paper PMC11870435 (2025).
